Target: the molecule itself
Assay: native MS; non-activating native electrospray on a Q Exactive UHMR; 200 mM ammonium acetate pH 6.9; 5 μM ADH, 10 μM β-gal, 8 μM ferritin, 5 μM GroEL (concentrations of the most abundant oligomers)

B1: alcohol dehydrogenase (enzyme)
chain: MSIPETQKGVIFYESHGKLEYKDIPVPKPKANELLINVKYSGVCHTDLHAWHGDWPLPVKLPLVGGHEGAGVVVGMGENVKGWKIGDYAGIKWLNGSCMACEYCELGNESNCPHADLSGYTHDGSFQQYATADAVQAAHIPQGTDLAQVAPILCAGITVYKALKSANLMAGHWVAISGAAGGLGSLAVQYAKAMGYRVLGIDGGEGKEELFRSIGGEVFIDFTKEKDIVGAVLKATDGGAHGVINVSVSEAAIEASTRYVRANGTTVLVGMPAGAKCCSDVFNQVVKSISIVGSYVGNRADTREALDFFARGLVKSPIKVVGLSTLPEIYEKMEKGQIVGRYVVDTSK
notes: alcohol dehydrogenase (ADH), Sigma Aldrich A7011-15KU; native tetramer selected by mass; also called ADH; source: bought: Sigma Aldrich (A7011-15KU), used without further purification; desalted into 200 mM ammonium acetate
- stoichiometry N: 4

B2: apoferritin (natural protein, UniProt P02791 1-175, looked up)
chain: MSSQIRQNYSTEVEAAVNRLVNLYLRASYTYLSLGFYFDRDDVALEGVCHFFRELAEEKREGAERLLKMQNQRGGRALFQDLQKPSQDEWGTTLDAMKAAIVLEKSLNQALLDLHALGSAQADPHLCDFLESHFLDEEVKLIKKMGDHLTNIQRLVGSQAGLGEYLFERLTLKHD
notes: ferritin, Sigma Aldrich F4503-25MG; The sample held both apo- and holoferritin, and the 24-mer of apoferritin was selected by mass; PDB 7A6A, used for comparison of shapes, may be a recombinant ferritin of another species or chain; also called apo/holo-ferritin; source: bought: Sigma Aldrich (F4503-25MG), saline stock solution, used without further purification; desalted into 200 mM ammonium …
- stoichiometry N: 24

Reference: publication PMC9641999, “Cryo-EM samples of gas-phase purified protein assemblies using native electrospray ion-beam deposition” (Faraday discussions, 2022)
